Test results reported in patent publication US7244563B2, “Genes for plant fatty acid modifying enzymes associated with conjugated double bond formation” (E. I. du Pont de Nemours and Company, priority 2002, dated 2007).

Experiments:
soybean embryos = assay: Fatty acid composition of transgenic soybean somatic embryos (GC, GC-MS); assay type: cell-based
Procedure: Gene fusions of the Impatiens balsamina or Momordica charantia cDNAs with the conglycinin promoter and phaseolin termination sequences in vector pKS67 were introduced into soybean embryos using the particle bombardment method of transformation. To induce somatic embryos, cotyledons, 3–5 mm in length dissected from surface sterilized, immature seeds of a soybean cultivar A2872 or JACK-910 were cultured in the light or dark at 26° C. on an appropriate agar medium for 6–10 weeks. Somatic embryos that produce secondary embryos were then excised and placed into a suitable liquid medium. After repeated selection for clusters of somatic embryos that multiplied as early, globular staged embryos, the suspensions were maintained as described below.
Soybean embryogenic suspension cultures were then transformed with the vector pKS67 containing the Impatiens or Momordica cDNA for fatty acid modifying enzymes associated with conjugated double synthesis by the method of particle gun bombardment (Klein et al. (1987) Nature (London) 327:70, U.S. Pat. No. 4,945,050). A DuPont Biolistic™ PDS1000/HE instrument (helium retrofit) was used for these transformations.
Five to seven days post bombardment, the liquid media was exchanged with fresh media, and eleven to twelve days post bombardment with fresh media containing […] hygromycin. This selective media was refreshed weekly. Seven to eight weeks post bombardment, green, transformed tissue was observed growing from untransformed, necrotic embryogenic clusters. Isolated green tissue was removed and inoculated into individual flasks to generate new, clonally propagated, transformed embryogenic suspension cultures. Each new line was treated as an independent transformation event. These suspensions were then subcultured and maintained as clusters of immature embryos.
Transgenic soybean embryos selected and maintained in this manner were analyzed for eleostearic acid and parinaric acid content using methods described in Example 4 (Table 1). Individual embryos expressing either the Impatiens or Momordica fatty acid modifying enzyme for conjugated double bond synthesis were homogenized in 1% (w/v) sodium methoxide in methanol. Fatty acid methyl esters resulting from this transesterification step were analyzed by both GC and GC-MS as described in Example 4. Methyl esters of eleostearic and parinaric acids were identified in transgenic soybean extracts by comparison of retention times and mass spectra with those of fatty acid methyl esters prepared from seeds of Impatiens balsamina and Momordica charantia. […] In soybean embryos expressing the Momordica enzyme, eleostearic acid was detected principally as α-eleostearic acid with lesser amounts of at least two other cis-trans isomers of eleostearic acid. […]

[1] = system: Tobacco (Nicotiana tabacum L. cv Xanthi) callus; assay: Fatty acid analysis (GC, GC-MS) of transgenic tobacco callus expressing the cDNA; assay type: cell-based; conditions: pBI121, 35S promoter, highest amount
From the text: The cDNAs encoding fatty acid modifying enzymes associated with conjugated double bond synthesis in seeds of Impatiens balsamina and Momordica charantia were introduced into a plant expression vector designated pML63. Vector pML63 contains the uidA gene (which encodes the GUS enzyme) operably linked to the CaMV35S promoter and 3′ NOS sequence. pML63 is modified from pMH40 to produce a minimal 3′ NOS terminator fragment. pMH 40 is described in WO 98/16650 which was published on Apr. 23, 1998, the disclosure of which are hereby incorporated by reference. Using standard techniques familiar to those skilled in the art, the 770 base pair terminator sequence contained in pMH40 was replaced with a new 3′ NOS terminator sequence comprising nucleotides 1277 to 1556 of the sequence published by Depicker et al. (1982, J. Appl. Genet. 1:561–574). A chimeric gene was constructed comprising cDNAs encoding fatty acid modifying enzymes associated with conjugated double bond synthesis in seeds of Impatiens balsamina and Momordica charantia in sense orientation with respect to the cauliflower mosaic virus 35S promoter that is located 5′ to the cDNA fragment and termination sequences from the nopaline synthase (NOS) that are located 3′ to the cDNA fragment. The cDNAs for the Impatiens polypeptide was introduced in the NcoI and EcoRI sites of the vector pML63. The cDNA for the Momordica polypeptide was introduced into the NcoI and SmaI sites of the vector pML63. The NcoI and EcoRI sites flanking the Impatiens cDNA were generated by PCR amplification of the cDNAs using oligonucleotide primers that contained these restriction sites (SEQ ID NO:7 and SEQ ID NO:8, for the sense and antisense oligonucleotides, respectively). PCR amplification was conducted using the Pfu DNA polymerase. The NcoI site flanking the 5′ end of the Momordica cDNA was generated by PCR amplification in a similar manner (SEQ ID NO:9 and SEQ ID NO:10). The 3′ end of the PCR-generated Momordica cDNA was blunt-ended which allowed for cloning into the SmaI site of the vector pML63. The resulting fusions of the cauliflower mosaic virus 35S promoter with the cDNAs encoding fatty acid modifying enzymes associated with conjugated double bond synthesis in seeds of Impatiens balsamina or Momordica charantia and NOS termination sequences were released from the vector pML63 by digestion with XbaI. The resulting XbaI fragment was ligated into the corresponding site of the binary vector pZS199 The vector pZS199 contains the following elements: (1) the chimeric gene nopaline synthase/neomycin phosphotransferase as a selectable marker for transformed plant cells (Brevan et al. (1984) Nature 304:184–186), (2) the left and right borders of the T-DNA of the Ti plasmid (Brevan et al. (1984) Nucl. Acids Res. 12:8711–8720), (3) the E. coli lacZ-complementing segment (Vieria and Messing (1982) Gene 19:259–267) with unique restriction endonuclease sites for EcoRI, KpnI, BamHI, XbaI and SalI, (4) the bacterial replication origin from the Pseudomonas plasmid pVS1 (Itoh et al. (1984) Plasmid 11:206–220), and (5) the bacterial neomycin phosphotransferase gene from Tn5 (Berg et al. (1975) Proc. Natl. Acad. Sci. U.S.A. 72:3628–3632) as a selectable marker for transformed A. tumefaciens. The nopaline synthase promoter in the plant selectable marker was replaced by the 35S promoter (Odell et al. (1985) Nature, 313:810–813) by a standard restriction endonuclease digestion and ligation strategy.
Gene fusions of the Impatiens balsamina or Momordica charantia cDNAs with the cauliflower mosaic virus 35S promoter and the NOS termination sequences in vector pZS199 were introduced into Agrobacterium tumefaciens strain LBA4404. […]

[2] = soybean embryos, six independent transgenic lines (n = 6), ± standard deviation, % of total oil weight

B1: ChrFad2: Chrysobalanus icaco fatty acid modifying enzyme associated with conjugated double bond synthesis, SEQ ID NO:20, cDNA SEQ ID NO:19 (protein)
chain: MGAGGQKTFPRLEEEEKQQQAAAAGFKRIPTTKPPFTLSDLKKAIPPHCFQRSLLRSFSYVFIDLTIISILGYIGATYICLLPPPSKYLAWLLYWAVQGCFFTGAWALAHDCGHHAFSDYQWIDDAVGMVLHSTLMVPYFSFKYSHRRHHSNINSLERDEVFVPRPKSKIKWYCSKYLNNPLGRVLTLAVTLILGWPMYLALNASGRDYDRFVSHFYPYGPIYNDRERLQIYISDAGIFIVSYVLYQVALAKGLPWLICIYGVPLFVNNALVVTITYLQHTHPELPRYGNSEWDWFKGTLATVDRDMGPLLNWATHHVSDTHYVHHLFSTMPHYHGVEATKAVKPMLGEYYRFDPTPLYKALWREAKECLFVEPDSKSPGVFWFDKF
modifications: Chrysobalanus icaco
16:0 (soybean embryos; soybean embryos, single embryos from six independent transgenic lines (n = 6), ± standard deviation, % of total oil weight): 7.0 ± 1.4 Weight % | 18:0 (soybean embryos; [2]): 1.9 ± 0.6 Weight % | 18:1 (soybean embryos; [2]): 37.6 ± 6.2 Weight % | 18:2 (soybean embryos; [2]): 28.1 ± 3.8 Weight % | 18:3 (soybean embryos; [2]): 6.0 ± 2.5 Weight % | α-Parinaric (soybean embryos; [2]): 0.9 ± 0.3 Weight % | Eleostearic (soybean embryos; soybean embryos, six independent transgenic lines (n = 6), includes cis-trans isomers of α-eleostearic acid (<1.0 wt %)): 16.4 ± 2.4 Weight % | Other (soybean embryos; soybean embryos, six independent transgenic lines (n = 6), primarily 20:0, 20:1, 22:0, and 22:1): <2.1 Weight % | α-paranaric acid of the total fatty acids (soybean embryos; soybean somatic embryos, β-conglycinin promoter): approximately 1 wt % | α-eleostearic acid of the total fatty acids (soybean embryos; soybean somatic embryos, β-conglycinin promoter, highest amount): ≤ 21 wt % | α-eleostearic acid of the total fatty acids of callus samples [1]: ≤ 4.7 wt % | α-paranaric acid of the total fatty acids of callus samples [1]: ≤ 0.4 wt %
